Molecular target: IL-6 protein (human) (UniProt P05231)
Assay: Luminex based assay, biotin-IL-6 binding to solid phase sIL-6R/gp80

Chain of UniProt P05231 (P05231 30-212 limits assumed): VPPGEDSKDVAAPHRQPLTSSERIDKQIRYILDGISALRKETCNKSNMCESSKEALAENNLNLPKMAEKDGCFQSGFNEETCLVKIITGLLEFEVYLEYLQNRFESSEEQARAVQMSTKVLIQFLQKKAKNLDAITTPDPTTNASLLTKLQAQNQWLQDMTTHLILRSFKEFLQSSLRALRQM

percent inhibition of bound biotin-IL-6: 62%
Substance: CLB.IL-6/16 (antibody)
